Source: patent US20250027068
Residue numbers refer to the chain shown, from its start.

B1: PRT-492 (protein)
chain: MVTSVWTKGVTPPTDFRKIVDGNIAYYHAPYKAGQGWYDITKAFDGGDNLLCGAATAGNMLHWWFDQNKEQIENYLKKHPEKQKIIFNNQELFDLKAAIDTKDSQTNSELFNYFKEKAFPYLSTKHLGVFPDHVIDMFINGYRLSLTNHGPTPVKRGSKDKRGGIFDAVFTRGVQSKLLTNRHDLKNKTLKEISDLIKQELTEGKALGISHTYANVRINHVINLWGADFDAEGNLEAIYVTDSDTNASIGMKKYFVGVNSNGKVAISAKEIEEDNIGAQVLGLFTLSTGQDIWNQTNLEHHHHHH
B2: PRT-450 (protein)
chain: MVTSVWTKGVTPPTDFRKIVDGNIAYYHAPYKAGQGWYDITKAFDGGDDLLCGAATAGNMLHWWFDQNKDQIEAYLKEHPEKQKINFNGEQMFDVKEAIDTKDDQTNSELFNYFKEKAFPYLSTKHLGVFPDHVLDMFINGYRLSLTNHGPTPVKEGSKDPRGGIFDAVFTRGDQSKLLTSRHDLKNKTLKEISDLIKQELTEGKALALSHTYANVRINHVINLWGADFDSNGNLEAIYVTDSDSNASIGMKKYFVGVNSAGKVAISAKEIEDDNIGAQVLGLFTLSTGQDIWNQTNLEHHHHHH
B3: PRT-462 (protein)
chain: B2 chain with A74R, D104S, A208G, N232E, E236K, E272K, D273E
B4: PRT-470 (protein)
chain: MVTSVWTKGVTPPTDFIYGEDVLHAPYKAGQGWYDITKTFNGKDDLLCGAATAGNMLHWWFDQNKEQIENYLKKHPEKQKINFNGEQMFDVKEAIDTKDSQLDSKLFEYFKEKAFPYLSTKHLGVFPDHVIDMFINGYRLSLTNHGPTPVKRGSKDPRGGIFDAVFTRGDQSKLLTNRHDFKEKTLKEISDLIKQELTEGKALGISHTYANVRINHVINLWGADFDAEGNLEAIYVTDSDSNASIGMKKYFVGVNSNGKVAISAKEIEEDNIGAQVLGLFTLSTGQDIWNQTNLEHHHHHH
B5: PRT-521 (protein)
chain: MVTSVWTKGVTPPADFTQGEDVFHAPYVANQGWYDITKTFNGKDNLLCGAATAGNMLHWWFDQNKEYIEAYLKKHPEKQKIIFNNQELFDLKAAINTKGSQKNSELFNYFRDKAFPNLSARRLGVFPDLVLDMFINGYYLNVTKTQTTDVNRTYQEKDKRGGIFDAVFTRGVQSKLLTSRHDLKNKGLKEISDLIKQELTEGKALGLSHTYANVRINHVINLWGADFDSDGNLKAIYVTDSDTNASIGMKKYFVGVNSAGKVAISAKEIKEDNIGAQVLGLFTLSTGQDIWNQTNLEHHHHHH
B6: PRT-515 (protein)
chain: MITSVWTKGVTPPTDFIKGEDVFHAPYKAGQGWYDITKAFDGGDDLLCGAATAGNMLHWWFDQNKEEIEAYLKKHPEKQKIMFGDQELLDVRKVINTKDSQTNSALFNYFKDKAFPNLSARRLGVMPDLVLDMFINGYYLNVYKTQTTDVNRQEQTKDRRGGIFDAVFGRGDQTKLLTERHDLKNKTLNEISQLIKQELTEGKALGLSHTYANVRINHVINLWGADFDAEGNLEAIYVTDSDSNASIGMKKYFVGVNSAGKVAISAKEIKEDNIGAQVLGLFTLSTGQKIWNKTNLEHHHHHH
B7: PRT-520 (protein)
chain: MVTSVWTKGVTPPTDFRKIVDGNIAYYHAPYKAGQGWYDITKAFDGGDNLLCGAATAGNMLHWWFDQNKEYIEAYLKKHPEKQKIIFNNQELFDLKAAINTKGSQKNSELFNYFRDKAFPNLSARRLGVFPDLVLDMFINGYYLNVTKTQTTDVNRTYQEKDKRGGIFDAVFTRGVQSKLLTSRHDLKNKGLKEISDLIKQELTEGKALGLSHTYANVRINHVINLWGADFDSDGNLKAIYVTDSDTNASIGMKKYFVGVNSAGKVAISAKEIKEDNIGAQVLGLFTLSTGQDIWNQTNLEHHHHHH
B8: PRT-510 (protein)
chain: MITSVWTKGVTPPTDFRKIVDGNIAYYHAPYKAGQGWYDITKAFDGGDDLLCGAATAGNMLHWWFDQNKEEIEAYLKKHPEKQKIMFGDQELLDVRKVINTKDSQTNSALFNYFKDKAFPNLSARRLGVMPDLVLDMFINGYYLNVYKTQTTDVNRTYQTKDRRGGIFDAVFTRGDQSKLLTERHDLKNKTLKEISDLIKQELTEGKALGLSHTYANVRINHVINLWGADFDSNGNLEAIYVTDSDSNASIGMKKYFVGVNSAGKVAISAKEIKEDNIGAQVLGLFTLSTGQDIWNQTNLEHHHHHH
B9: PRT-485 (protein)
chain: MVTSVWTKGVTPPANFTQGEDVFHAPYKANQGWYDITKTFNGKDNLLCGAATAGNMLHWWFDQNKDQIEAYLKEHPEKQKIIFNNQELFDLKAAIDTKDDQTNSKLFEYFKEKAFPYLSTKHLGVFPDHVLDMFINGYRLSLTNHGPTPVKEGSKDKRGGIFDAVFTRGVQSKLLTSRHDLKNKTLKEISDLIKQELTEGKALALSHTYANVRINHVINLWGADFDSNGNLEAIYVTDSDTNASIGMKKYFVGVNSAGKVAISAKEIEDDNIGAQVLGLFTLSTGQDIWNQTNLEHHHHHH
B10: PRT-489 (protein)
chain: B9 chain with K28V, A70R, D100S, N103D, A204G, N228E, E232K, E268K, D269E

The proteins below were run against pooled human IgG (human IgG1,2,3 and 4).

Row | Protein | Enzyme Activity Endpoint Assay (purified): Fab′2 [ng/µL] | Enzyme Activity Endpoint Assay (purified): Fc [ng/µL] | Enzyme Activity Endpoint Assay (purified): IgG [ng/µL] | Enzyme Activity Endpoint Assay (purified): scIgG [ng/µL]
1 | B1 | 54 | 207 | 362 | 1020
2 | B2 | 300 | 282 | 227 | 481
3 | B3 | 0 | 0 | 0 | 0
4 | B4 | 1080 | 363 | 0 | 0
5 | B5 | 0 | 13 | 0 | 0
6 | B6 | 0 | 0 | 0 | 0
7 | B7 | 271 | 265 | 470 | 475
8 | B8 | 51 | 29 | 0 | 0
9 | B9 | 0 | 0 | 1400 | 0
10 | B10 | 0 | 0 | 0 | 0
